Assay results taken from US9201073B2, “Methods and compositions for enhancing proteasome activity” (President and Fellows of Harvard College, priority 2007, dated 2015).

Legend:
26S human proteasomes = molecular target: T1, 26S human proteasomes (Homo sapiens, UniProt O00487); test: In vitro Ubn-cyclin B1 degradation assay with human proteasomes; format: biochemical; details: 4 nM human proteasomes, about 30 nM ubiquitinated cyclin B, Usp14 60 nM preincubated 5 min
T1 construct: HTBH (C); made in house; complex purified from it
Experimental: A stable 293 cell line expressing hRpn11-HTBH was used. Human proteasomes were purified as previously described with some modifications (Wang X and Huang L (2007) Identifying dynamic interactors of protein complexes by quantitative mass spectrometry. Mol Cell Proteomics. 2008 January; 7(1):46-57. Epub 2007 Oct. 12.
Assays were performed in proteasome preparation buffer (50 mM Tris [pH 7.5], 5 mM MgCl2, and 5 mM ATP) at ambient temperature for the indicated times. The 26S human proteasomes (4 nM) were incubated with approximately 30 nM of Ub-conjugated cyclin B1 as substrates. Cyclin was ubiquitinated using purified APC ubiquitin ligase. Where indicated, a 15-fold molar access of recombinant Usp14 over proteasomes were preincubated prior to adding Ubn-cyclin B1.
In the study shown in FIG. 14, 4 nM of human proteasomes were incubated with approximately 30 nM of ubiquitinated cyclin B in buffer (50 mM Tris [pH 7.5], 5 mM MgCl2, and 5 mM ATP). Where indicated, 15-fold molar access of Usp14 over proteasome (60 nM) was preincubated for 5 min before initiating degradation reactions. Ubiquitinated cyclin B was added at time zero. SDS-sample buffer was added to stop the reaction at the indicated time. Usp14 CA is a variant of Usp14 with a single amino acid substitution that eliminates the active site nucleophile of the enzyme (a cysteine to alanine replacement). […]

ubp6Δ proteasomes [1] = molecular target: T2, ubp6Δ proteasomes (Saccharomyces cerevisiae, UniProt P30656+P43588); test: In vitro ub-cyclin B deubiquitination/degradation assay with purified yeast proteasomes; format: biochemical; details: ubp6Δ proteasomes 135 nM; recombinant Ubp6 or Usp14 species 540 nM, Ubl and Ubl-MBP 1.35 μM, preincubated 5 min; immunoblot
T2 construct: proteasomes purified from ubp6Δ mutants; TEV-ProA (TEV site + protein A), chromosomally integrated (C); made in house
Experimental: Proteasomes (135 nM) were incubated with ub-cyclin Bin the presence of 1 mM ATP and buffer (50 mM Tris [pH 7.51, 1 mM EDTA, 5 mM MgCl2) for the indicated times. Reactions were terminated by the addition of 5×SDS Laemmli loading buffer (Leggett, et al. (2002). Multiple associated proteins regulate proteasome structure and function. Mol. Cell. 10, 495-507) and boiled for 5 min. Where indicated, recombinant, purified Ubp6 or Usp14 species (540 nM) were preincubated with proteasomes for 5 min prior to the reaction. […] Unless otherwise noted, immunoblots were visualized with anti-cyclin B1 polyclonal antibodies. Polyclonal antibodies recognizing Ubp6, Rpn5, Rpn12, and ubiquitin were used as indicated. Ub-cyclin B was added in molar excess over proteasome, generally on the order of 25-fold, except for FIGS. 4C, 6A and 6B, where the substrate:enzyme ratio was increased by a factor of five.
In the experiments of FIGS. 1, 4 (except FIG. 4C), and 6C, time points were sampled after the preparation of a single reaction mixture. The zero time points therefore reflect a lag which represents the amount of time required to sample the first time point after having prepared the reaction mixture. […] In the experiments of FIGS. 2, 4C, and 6 (except 6C), each time point was carried out as an independent reaction. The zero time points were prepared in the presence of 5×LLB, and accordingly, no processing could occur before time zero.
Ubiquitination of cyclin B was carried out. Briefly, for each 30 μl reaction, Anaphase Promoting Complex (APC) was immunopurified from 600 μl of mitotic Xenopus egg extract with 12 μg of anti-Cdc27 antibodies (AF3.1, Santa Cruz Biotechnologies, Santa Cruz, Calif.) bound to 30 μl of Affiprep Protein A beads (Bio-Rad, Hercules, Calif.). Beads were washed three times with XB high salt (10 mM potassium HEPES pH 7.7, 500 mM KCl, 0.1 mM CaCl2, 1 mM MgCl2), two times with XB (same but with 100 mM KCl), and then three times into the reaction buffer (20 mM Tris pH 7.5, 100 mM KCl, 2.5 mM MgCl2, 2 mM ATP). Ubiquitination reactions contained immunoprecipitated APC on 30 μl of beads, and 30 μl of a mix containing recombinant MBP-human E1 at 200 μg/ml, histidine-tagged Ubc4 at 66 μg/ml, ubiquitin at 1.25 mg/ml, and 50 μg/ml of histidine-tagged cyclin B1/cdc2 complex expressed in baculovirus. Reactions were incubated for 90 minutes at 22° C. with agitation on a shaker at 1,000 RPM. Reaction supernatants were combined with the eluate from the wash of beads with 20 μl of reaction buffer. Reactions were either used fresh after preparation or frozen at −80° C. until use with purified proteasomes.

[2] = molecular target: T3, RP purified from a ubp6Δ mutant (Saccharomyces cerevisiae, UniProt P43588); test: Processing of ub-cyclin B by regulatory particle (RP); format: biochemical, yeast; details: RP 135 nM, four-fold molar excess of Ubp6 species
T3 construct: TEV-ProA (TEV site + protein A), chromosomally integrated (C); made in house
Experimental: FIGS. 6A and 6B depict the processing of ub-cyclin B by RP (ubp6Δ) in the presence or absence of purified Ubp6. Reactions were visualized by immunoblotting with anti-cyclin B antibody or anti-ubiquitin antibody, as indicated.
FIG. 12 is an illustration depicting the RP-mediated disassembly of Ub-cyclin B conjugates by Ubp6. Proteasome regulatory particle (135 nM) purified from a ubp6Δ strain was combined with a four-fold molar excess of Ubp6, Ubp6-ublΔ, or Ubp6-C118A, and Ub-Cyclin B, and incubated for the indicated times. Reactions were visualized by immunoblot with anti-ubiquitin antibody. *represents a non-ubiquitin immunoreactive band.
A previously described procedure for purification of the proteasome (Leggett, et al. (2002). Multiple associated proteins regulate proteasome structure and function. Mol. Cell. 10, 495-507) was modified by adding 1 mM ATP and 5 mM MgCl2 to all purification buffers, and by washing resins with 100 bed vol. of buffer containing 50 mM NaCl, as opposed to 50 bed vol. of buffer containing 100 mM NaCl. RP was purified in the presence of ATP and MgCl2 as described (Leggett et al., 2002).
Proteasomes (135 nM) were incubated with ub-cyclin Bin the presence of 1 mM ATP and buffer (50 mM Tris [pH 7.51, 1 mM EDTA, 5 mM MgCl2) for the indicated times. […]

proteasome = molecular target: T4, proteasome (Saccharomyces cerevisiae, UniProt P43593); details: cited from earlier work
T4 sequence (P43593 1-499): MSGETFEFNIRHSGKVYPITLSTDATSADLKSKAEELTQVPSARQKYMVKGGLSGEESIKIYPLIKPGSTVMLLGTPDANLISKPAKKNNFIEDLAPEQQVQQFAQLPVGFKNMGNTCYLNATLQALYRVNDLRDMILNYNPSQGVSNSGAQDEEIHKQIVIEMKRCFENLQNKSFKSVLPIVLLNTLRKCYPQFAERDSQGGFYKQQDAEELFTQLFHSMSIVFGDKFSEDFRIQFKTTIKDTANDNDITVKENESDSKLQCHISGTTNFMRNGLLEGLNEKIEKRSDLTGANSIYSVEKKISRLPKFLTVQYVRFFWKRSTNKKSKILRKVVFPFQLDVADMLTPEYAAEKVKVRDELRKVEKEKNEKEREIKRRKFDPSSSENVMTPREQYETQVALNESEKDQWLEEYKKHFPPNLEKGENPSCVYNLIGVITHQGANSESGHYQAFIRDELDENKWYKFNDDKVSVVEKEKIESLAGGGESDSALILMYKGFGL

ubp6Δ proteasomes [3] = molecular target: T2, ubp6Δ proteasomes; test: Quantitation of proteasome inhibition by quantitative mass spectrometry of cyclin B; format: biochemical, yeast; details: 20-minute incubation
Experimental: A standard substrate degradation assay was carried out, and analyzed in parallel by SDS-PAGE followed by Coomassie blue staining and immunoblot with anti-cyclin B antibody. Immunoblots were used to identify and excise the cyclin B-containing regions of the Coomassie-stained gel, and the lanes were analyzed by mass spectrometry.
To quantify the extent of proteasome inhibition by Ubp6, a method of quantitative mass spectrometry was utilized. After a 20-minute incubation, approximately half of the total cyclin B was degraded by ubp6Δ proteasomes (FIG. 4C).

ubiquitin ethyl ester = details: cited from earlier work
Ub-cyclin B = molecular target: T5, Ub-cyclin B (Homo sapiens, UniProt P14635); test: Ub-cyclin B binding assay (GST pull down); details: GST resin pull down, immunoblot
T5 construct: histidine tag; made in house; host or cells: cyclin B1/cdc2: baculovirus expression; GST-Ubp6: pGEX-4T-1 (bacterial)
T5 sequence (P14635 whole entry, other chains not shown): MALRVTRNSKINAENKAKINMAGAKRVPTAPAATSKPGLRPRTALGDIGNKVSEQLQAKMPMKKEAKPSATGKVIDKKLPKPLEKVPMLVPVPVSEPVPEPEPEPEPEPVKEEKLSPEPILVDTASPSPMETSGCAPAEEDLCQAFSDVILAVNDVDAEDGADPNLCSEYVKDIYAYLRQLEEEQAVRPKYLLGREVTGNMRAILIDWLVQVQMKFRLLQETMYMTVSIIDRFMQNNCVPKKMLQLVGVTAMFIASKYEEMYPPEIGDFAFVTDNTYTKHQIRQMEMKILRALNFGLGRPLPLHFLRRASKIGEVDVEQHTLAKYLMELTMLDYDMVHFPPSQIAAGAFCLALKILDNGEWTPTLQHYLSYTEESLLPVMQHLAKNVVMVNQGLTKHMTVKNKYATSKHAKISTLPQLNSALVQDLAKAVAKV
T5 sequence (P06493 whole entry partner, other chains not shown): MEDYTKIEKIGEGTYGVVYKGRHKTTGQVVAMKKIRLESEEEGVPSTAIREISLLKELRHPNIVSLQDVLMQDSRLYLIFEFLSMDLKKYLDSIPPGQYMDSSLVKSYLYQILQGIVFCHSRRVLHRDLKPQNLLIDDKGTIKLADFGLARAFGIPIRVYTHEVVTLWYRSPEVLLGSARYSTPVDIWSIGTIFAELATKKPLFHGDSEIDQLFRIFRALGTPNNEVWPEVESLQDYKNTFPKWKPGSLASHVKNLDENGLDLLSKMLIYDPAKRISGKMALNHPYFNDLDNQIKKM

Usp14: human homolog of Ubp6, purified recombinant deubiquitinating enzyme
suppression of cyclin B degradation by human proteasomes (26S human proteasomes): suppression of cyclin B degradation
inhibition of cyclin B degradation (ubp6Δ proteasomes [1]): largely recapitulated the effects of Ubp6

B1: Ubp6: yeast proteasomal deubiquitinating enzyme, endogenous proteasome inhibitor; purified recombinant protein (protein)
chain: T4 sequence (P43593 1-499)
processing of ub-cyclin B conjugates by RP [2]: chain shortening
activation of Ubp6's catalytic activity on binding to the proteasome (proteasome): over 300 fold
inhibition of degradation (cyclin B) (ubp6Δ proteasomes [3]): approximately 70%
KM of Ubp6 for ubiquitin ethyl ester (ubiquitin ethyl ester): so high as to be unmeasurable
inhibition of cyclin B degradation (ubp6Δ proteasomes [1]): marked inhibition of cyclin B degradation

B2: GST-Ubp6: GST fusion of Ubp6 on resin (protein)
chain: T4 sequence (P43593 1-499)
modifications: left off: a dimerising Fc or GST
notes: GST fusion of Ubp6 on resin
binding of Ub-cyclin B conjugates (Ub-cyclin B): No detectable binding
